# How the values were obtained:
# [1] = molecular target: T1, tissue factor (TF) on the surface of TF-positive tumor cells (human, UniProt P13726 33-295); experiment: cell-based or functional assay
# [2] = molecular target: T1, tissue factor (TF) on the surface of …; experiment: cell-based or functional assay; remark: listed apart in the source
# [3] = molecular target: T1, tissue factor (TF) on the surface of …; experiment: cell-based or functional assay; remark: listed apart in the source
# [4] = molecular target: T1, tissue factor (TF) on the surface of …; experiment: flow cytometry on KYSE520 cells
# Procedure: (§1) A TF low/medium-expressing cell line NCI-H358 (source: Nanjing Cobioer, CBP60136) and a TF high-expressing cell line KYSE520 (source: Nanjing Cobioer, CBP60658) were digested with trypsin, collected by centrifugation, and washed three times with pre-cooled PBS. The cells were resuspended in 1% BSA and seeded into a 96-well sharp-bottom plate at 3×10⁵ cells/well. Each of the antibodies obtained by the gradient dilution was added, and the plate was incubated at 4° C. for 1 h. The cells were washed three times with pre-cooled PBS. 1 μL of anti-human fluorescent secondary antibody (APC anti-human IgG Fc Antibody, Biolegend, 410712) was added to each well, and the plate was incubated at 4° C. for 0.5 h. The cells were washed three times with pre-cooled PBS, resuspended, and detected by a flow cytometer (Sony, LE-SA3800GA). The data were imported into GraphPad software for curve fitting.
# [5] = molecular target: T1, tissue factor (TF) on the surface of …; experiment: flow cytometry on NCI-H358 cells
# Procedure: as §1
# cynomolgus monkey TF-His [6] = molecular target: T2, cynomolgus monkey TF-His (cynomolgus monkey, UniProt A0A2K5VX02 33-253); experiment: ELISA, plate coated with c.TF-His
# T2 construct: range 33-252; Recombinant extracellular segment expressed in HEK293-EBNA cells and purified on a nickel column; also called c.TF-His; c; TF-his; not shown: His tag from vector pTT5-His
# T2 sequence: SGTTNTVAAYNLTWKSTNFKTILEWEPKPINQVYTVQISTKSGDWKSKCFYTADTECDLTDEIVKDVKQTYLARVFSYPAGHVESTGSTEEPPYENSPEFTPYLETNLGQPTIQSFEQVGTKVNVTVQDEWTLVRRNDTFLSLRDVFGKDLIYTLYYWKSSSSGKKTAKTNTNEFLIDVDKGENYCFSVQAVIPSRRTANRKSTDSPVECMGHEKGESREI
# Procedure: (§2) The ELISA plate was coated overnight with TF antigen (h.TF-His or c.TF-His antigen) in 50 mM carbonate coating buffer (CBS coating solution) at a coating concentration of 1 μg/mL in a volume of 100 μL at 4° C. The next day, the coating solution was removed, each well was washed once with 300 μL of PBS, and 100 μL of 2% BSA (Biotopped, A6020) in PBS was added to each well for blocking at 37° C. for 2 h. The test sample was subjected to a gradient dilution with 2% BSA in PBS to establish 11 concentration points. 100 μL of each of the samples obtained by the gradient dilution was added to the plate, and the plate was incubated at 37° C. for 2 h. The supernatant was removed, and each well was washed three times with 300 μL of PBST. 100 μL of HRP-conjugated secondary antibody in 2% BSA was added to each well, and the plate was incubated at 37° C. for 1 h. […] At the end of the incubation, the secondary antibody was removed, each well was washed five times with 300 μL of PBST, and 100 μL of TMB substrate (Huzhou InnoReagents Co., Ltd., TMB-S-004) was added to each well for color development for 5-20 min. 50 μL of 2 N HCl was added to each well to stop the reaction, and OD450 nm values were read using a microplate reader (manufacturer: MD, model: SpectraMax) and imported into GraphPad software for fitting and plotting to determine the binding of the samples to TF antigenic proteins.
# (§3) The assay was performed as described in the general methods. Briefly, an ELISA plate coated with a human TF-his protein or a cynomolgus monkey TF-his protein was blocked with 2% BSA at 37° C. for 2 h, and each of the antibodies obtained by the gradient dilution (starting at 10 μg/mL, 3-fold graded dilution, 11 concentration points) was added. The plate was incubated at 37° C. for 2 h.
# human TF-His [7] = molecular target: T3, human TF-His (human, UniProt P13726 33-251); experiment: ELISA, plate coated with h.TF-His
# T3 construct: range 33-251; Recombinant extracellular segment expressed in HEK293-EBNA cells and purified on a nickel column; also called h.TF-His; h; TF-his; not shown: His tag from vector pTT5-His
# Procedure: as §2, §3
# [8] = molecular target: T1, tissue factor (TF) on the surface of …; experiment: cell ELISA on fixed NCI-H358 cells
# Procedure: TF antigen-positive cells (MDA-MB-231 or NCI-H358 cells) were seeded into a 96-well plate at 5×10⁴ cells/well one day prior to the experiment. On the day of the experiment, the culture supernatant was removed, each well was washed once with 300 μL of PBS, and 100 μL of 4% paraformaldehyde was added to each well for immobilization at room temperature for 20 min. The paraformaldehyde was removed, and each well was washed twice with 300 μL of PBS, and 100 μL of 2% BSA in PBS was added to each well for blocking at 37° C. for 2 h. After the blocking was completed, 30 μL of the test sample (hybridoma supernatant or purified antibody) was added to each well and the plate was incubated at 37° C. for 2 h. The liquid was removed, and each well was washed three times with 300 μL of PBST. 100 μL of HRP-conjugated secondary antibody in 2% BSA was added to each well, and the plate was incubated at 37° C. for 1 h. […] The secondary antibody was removed, each well was washed five times with 300 μL of PBST, and 100 μL of TMB substrate (Huzhou InnoReagents Co., Ltd., TMB-S-004) was added to each well for color development for 5-20 min. 50 μL of 2 N HCl was added to each well to stop the reaction, and OD450 nm values were read using a microplate reader (manufacturer: MD, model: SpectraMax) to determine the binding of the samples to TF-positive cells.
# The assay was performed as described in the general methods. Briefly, TF antigen-positive NCI-H358 cells were digested with trypsin, collected, seeded into a 96-well plate at 5×10⁴ cells/well and incubated overnight, and then immobilized with 4% paraformaldehyde. After the paraformaldehyde was removed and the cells were washed with PBS, the plate was blocked with 2% BSA at 37° C. for 2 h. Each of the antibodies obtained by the gradient dilution (starting at 10 μg/mL, 3-fold graded dilution, 11 concentration points) was added. The plate was incubated at 37° C. for 2 h.
# human TF-His [9] = molecular target: T3, human TF-His; experiment: BLI (ForteBio Octet), antibody on ProA sensor, TF-His as analyte
# Procedure: (§4) The dynamic affinity of the humanized antibodies was determined by ForteBio. The experimental procedures were as follows: a ProA sensor (18-5010, Octet) was taken out and pre-wetted with a PBST diluent (pH 7.4) for 10 min. The antibodies to be immobilized were diluted to 5 μg/mL. […] The program was set up, the sensor plate and sample plate were put in, then the program started. The sensor was regenerated with 20 mM glycine solution (pH 1.7). The data were analyzed using Octet analysis software to derive a result graph.
# cynomolgus monkey TF-His [10] = molecular target: T2, cynomolgus monkey TF-His; experiment: as above
# Procedure: as §4
# human TF-His [11] = molecular target: T3, human TF-His; experiment: antigenic protein-based ELISA, before conjugation (TF antigen species not stated)
# Procedure: as §2
# human TF-His [12] = molecular target: T3, human TF-His; experiment: antigenic protein-based ELISA, after conjugation with B81 (TF antigen species not stated)
# Procedure: as §2
Binder,"Endocytosis rate (%) on NCI-H358 cells, 2 h [1]","Endocytosis rate (%) on NCI-H358 cells, 4 h [1]","IC50 (ng/mL), inhibition of FVIIa-induced IL-8 release by MDA-MB-231 cells [2]","Maximum inhibition rate (%), FVIIa-induced IL-8 release by MDA-MB-231 cells [2]","coagulation time V50 (s), MDA-MB-231 cells + human plasma, 2 mM Ca2+, 50 µg/mL antibody [3]","coagulation time V50 (s), MDA-MB-231 cells + human plasma, 5 mM Ca2+, 20 µg/mL antibody [3]",EC50 [4],EC50 [5],EC50 (cynomolgus monkey TF-His [6]),EC50 (human TF-His [7]),EC50 [8],Kd (human TF-His [9]),koff (human TF-His [9]),kon (human TF-His [9]),Kd (cynomolgus monkey TF-His [10]),koff (cynomolgus monkey TF-His [10]),kon (cynomolgus monkey TF-His [10]),EC50 (human TF-His [11]),EC50 (human TF-His [12])
"2B12B10-hz1 (antibody, human IgG1, kappa, V domains shown, Humanized IgG1 kappa) VH: EVQLVESGGGLVQPGGSLRLSCAASGFAFSDSGMHWVRQAPGKGLEWVAYISRDSNTIYYADSVKGRFTISRDNAKNSLYLQMNSLRAEDTAVYYCGRRYYGDYFDYWGQGTLVTVSS VL: DIVLTQSPATLSLSPGERATLSCRASQRVTNYLHWYQQKPGQSPRLLIKYASQSISGIPARFSGSGSGTDFTLTISSLEPEDFAVYFCQQSYNWPLTFGQGTKVEIKR",34.3%,49.6%,128 ng/mL,94.1%,882 s,24.2 s,140 ng/mL,187 ng/mL,13.6 ng/mL,6.72 ng/mL,3.88 ng/mL,13.8 nM,0.00289 s⁻¹,209000 M⁻¹ s⁻¹,33.8 nM,0.0116 s⁻¹,344000 M⁻¹ s⁻¹,6.65 ng/mL,
"30G11B7-hz1 (antibody, human IgG1, kappa, V domains shown, Humanized IgG1 kappa) VH: EVQLVESGGGLVKPGGSLRLSCAASGFTFSDYGMFWVRQAPGKGLEWVAYISRGSTTIYYADSVKGRFTISRDNAKNSLYLQMNSLRAEDTAVYFCTRRYYGDYFDYWGQGTLVTVSS VL: EIVLTQSPDFQSVTPKEKVTITCRASQSISNYLHWYQQKPDQSPKLLIKYASQSISGVPSRFSGSGSGTDFTLTINSLEAEDAATYFCQQSYNWPLTFGQGTKVEIKR",19.8%,46.1%,129 ng/mL,100%,1450 s,29.2 s,138 ng/mL,145 ng/mL,20.8 ng/mL,7.91 ng/mL,4.73 ng/mL,25.8 nM,0.00506 s⁻¹,197000 M⁻¹ s⁻¹,146 nM,0.053 s⁻¹,364000 M⁻¹ s⁻¹,7.68 ng/mL,
"27H8H3-hz1-B81 (antibody, human IgG1, kappa, V domains shown, drug-linker DL-01 (B81) on cysteine sulfhydryl group; prepared by the TF-ADC (DAR8) method (1 toxin molecule per light chain); drug-linker DL-01 (B81) on cysteine sulfhydryl groups; prepared by the TF-ADC (DAR8) method (3 toxin molecules per heavy chain)) VH: QVQLVQSGAEVKKPGASVKVSCKASGYTFTTYWMHWVRQAPGQGLEWMGMIDPSDSYTSYAQKFQGRVTLTVDTSTSTAYMELSSLRSEDTAVYYCTRGSGPGLFAYWGQGTLVTVSS VL: DIQETQSPSSLSASVGDRVTITCRASQGISNYLNWYQQKPGKAPKLLIYHTSRLHSGVPSRFSGSVSGTDFTLTISSLQPEDFATYFCQQGNTLPYTFGQGTKVEIKR",,,,,,,,,,,,,,,,,,,3.43 ng/mL
"2B12B10-hz1-B81 (antibody, human IgG1, kappa, V domains shown, drug-linker DL-01 (B81) on cysteine sulfhydryl group; prepared by the TF-ADC (DAR8) method (1 toxin molecule per light chain); drug-linker DL-01 (B81) on cysteine sulfhydryl groups; prepared by the TF-ADC (DAR8) method (3 toxin molecules per heavy chain), also called 2B12B10-B81) VH: EVQLVESGGGLVQPGGSLRLSCAASGFAFSDSGMHWVRQAPGKGLEWVAYISRDSNTIYYADSVKGRFTISRDNAKNSLYLQMNSLRAEDTAVYYCGRRYYGDYFDYWGQGTLVTVSS VL: DIVLTQSPATLSLSPGERATLSCRASQRVTNYLHWYQQKPGQSPRLLIKYASQSISGIPARFSGSGSGTDFTLTISSLEPEDFAVYFCQQSYNWPLTFGQGTKVEIKR",,,,,,,,,,,,,,,,,,,3.76 ng/mL
"30G11B7-hz1-B81 (antibody, human IgG1, kappa, V domains shown, drug-linker DL-01 (B81) on cysteine sulfhydryl group; prepared by the TF-ADC (DAR8) method (1 toxin molecule per light chain); drug-linker DL-01 (B81) on cysteine sulfhydryl groups; prepared by the TF-ADC (DAR8) method (3 toxin molecules per heavy chain)) VH: EVQLVESGGGLVKPGGSLRLSCAASGFTFSDYGMFWVRQAPGKGLEWVAYISRGSTTIYYADSVKGRFTISRDNAKNSLYLQMNSLRAEDTAVYFCTRRYYGDYFDYWGQGTLVTVSS VL: EIVLTQSPDFQSVTPKEKVTITCRASQSISNYLHWYQQKPDQSPKLLIKYASQSISGVPSRFSGSGSGTDFTLTINSLEAEDAATYFCQQSYNWPLTFGQGTKVEIKR",,,,,,,,,,,,,,,,,,,7.75 ng/mL
"22F11H5-hz1-B81 (antibody, human IgG1, kappa, V domains shown, drug-linker DL-01 (B81) on cysteine sulfhydryl group; prepared by the TF-ADC (DAR8) method (1 toxin molecule per light chain); drug-linker DL-01 (B81) on cysteine sulfhydryl groups; prepared by the TF-ADC (DAR8) method (3 toxin molecules per heavy chain)) VH: QVQLVQSGAEVKQPGASVKVSCKASGYTFTTYWMHWVRQAPGQGLEWMGMIDPSDSYTTYAQKFQGRVTLTVDTSTSTAYMELSSLRSEDTAVYYCARGSGPGLFAYWGQGTLVTVSS VL: DIQETQSPSSLSASVGDRVTITCRASQDIRNYLNWYQQKPGKAPKLLIYHTSRLQSGVPSRFSGSGSGTDYTLTISSLQPEDFATYYCQQGNMPPYTFGQGTKVEIKR",,,,,,,,,,,,,,,,,,,8.83 ng/mL

# — patent US20250333541A1, “ANTIBODY, AND DRUG CONJUGATE AND USE THEREOF” (EVOPOINT BIOSCIENCES CO., LTD., priority 2022, published 2025)
